In US20190309052A1 (Gilead, published 2019):

Experiments:
HBx69-87 control peptide = target: T1, HBx69-87 control peptide (Hepatitis B virus, UniProt P03165 69-87); test: ELISA with varying concentrations of peptide
T1 construct: range 69-87; also called HBx69-87 peptide
T1 peptide: CALRFTSARRMETTVNAHQ

[1] = target: T2, HBx AD38 (genotype D) residue 27-50 peptide (Hepatitis B virus genotype D); test: ELISA, 100 ng/mL antibody with varying peptide concentration
T2 construct: also called HBx27-50; HBx27-50 peptide
T2 peptide: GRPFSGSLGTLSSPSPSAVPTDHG

B1: HBx M19 mouse monoclonal anti-HBx antibody (antibody, V domains shown)
VH: EVQLQQSGPELVKPGASVKISCQASGYTFTDYYMNWVKQSHGKRLEWIGDINPNNGGTAYNQKFKGKATLTVDRSSSTAYMEVRSLTSEDSAVYFCALLAYWGQGTLVTVSA
VL: DVVMTQTPLSLPVSLGDQASISCRSSQSLVYSDGNTHLHWYLQKTGQSPKLLIYKASNRFSGVPDRFSGSGSGTDFTLKISRVEAEDLGVYFCSQSTHVPLTFGAGTKLELKR
notes: also called aHBx mAb; αHBx mAb
HBx69-87 control peptide
  binding result: no binding (tested: 100 ng/mL antibody)
[1]
  binding result: binds
